Columns and labels:
[1] = target: T1, COMMD1 protein, amino acids 6-190 (two-hybrid clone L2-21) (human, UniProt Q8N668 6-190); test: yeast two-hybrid screen of a human liver cDNA library, verified by mating
T1 construct: range 6-190; Prey clone found in the two-hybrid screen; also called MURR1; not shown: fusion partner of the human liver cDNA library (prey) vector in strain Y187; not described
Protocol: (§1) FIG. 1. The figure illustrates the physical interaction between the L2 peptide and COMMD1. This was carried out by the technique of two hybrids in yeast. As negative controls were used the mating of the yeast strain AH109 transformed with the empty vector (pGBKT7) and the fragments of COMMD1 transformed with the Y187 strain. For the identification of the interaction, mating of the strain AH109 transformed with vector carrying the sequence of L2 and each COMMD1 fragment transformed into strain Y187 was carried out. As a positive control, the PCL1 mating bearing the GAL4 transcription factor was used. As it can be noted, the interaction occurs with the plasmids carrying the complete sequence of the COMMD1 gene and the construction containing the amino acids 110-190 of the COMMD1 protein.
(§2) corresponding to the L2 peptide sequence: […] For cloning these sequences in the pGBKT7 NcoI-BamHI vector, sequences complementary to these sites were added at the ends of the oligonucleotides. The pGBKL2-1 recombinant plasmid, which carries the L2 peptide sequence was verified by restriction analysis and sequencing. The plasmid was transformed into the AH109 yeast strain by the lithium acetate method and grown in SD-Trp medium. It was verified that it could not be self-activated when grown on SD-Trp-His plates. […]

[2] = target: T2, COMMD1 fragment, amino acids 110-190 (clone pGBKL2 (110-190)) (human, UniProt Q8N668 110-190); test: yeast two-hybrid with deletion clones
T2 construct: range 110-190; also called COMM domain; not shown: two-hybrid vector fusion partner; not described
T2 sequence (Q8N668 110-190): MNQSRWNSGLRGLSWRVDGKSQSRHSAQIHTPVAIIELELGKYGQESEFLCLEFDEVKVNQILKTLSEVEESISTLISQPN
Protocol: as §1, §2

T1 sequence (Q8N668 6-190): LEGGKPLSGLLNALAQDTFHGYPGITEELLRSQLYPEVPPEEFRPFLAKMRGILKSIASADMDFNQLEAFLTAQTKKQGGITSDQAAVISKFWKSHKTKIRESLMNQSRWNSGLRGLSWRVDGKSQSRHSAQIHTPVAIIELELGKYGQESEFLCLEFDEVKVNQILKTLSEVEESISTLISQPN

B1: L2 peptide expressed from plasmid pGBKL2-1 (pGBKT7 vector) in yeast strain AH109 (peptide)
chain: HARIKPTFRRLKWKYKGKFW
notes: Two-hybrid bait; not shown: fusion partner encoded by the pGBKT7 two-hybrid bait vector
[1]
  binding result: binds
[2]
  binding result: binds
